Assay results reported in the DeepSol protein solubility set.

experiment: soluble on expression in E. coli; label from the status in PepcDB or PDB records

Row | Sequence | soluble on expression in E. coli
1 | MPSSGRGGAFFPDPCVFHGAYLPSGSSRWAKESTMFFIAKYKRNTEWLKMIFSNALHGVQEGSGFEWKAFVTLMPTELRVVSLSQELLRLWLVISYTVRDVRTYFFP | not soluble
2 | MGRAMGDSFTFIFNPAADKGRAADKTALIERSLAHFEVASLETTRFAGHAAEIARAAAGEGSTLIACGGDGTLNEVVNAVAGQPVKVGVLPVGSANDFLKTFNPSAKEHEVRIRGFAGATSRKVDLGKVEFGGGESRYFVNSIGIGFTGRIASTVKSVKWLRGELSYAWALVSVLLGYSAVKMHITLDTVEGKIELDEPVFAFSVSNGRVEGGKFRIAPEADPFDGLLDVCILKAVSKWRVPGYVLKYLKGSQIHDPNVIYCKARSVEVFLSVSEAMHMDGEVIEKVGGAIAITAEPLAVEMLYEP | not soluble
3 | MNKTMAKSLSVIIPACNEVDTISDVIQSVRPLNPVEIIVVANGCNDGTEDVADRLGCKVIKHTELLGNDVGRAVGAKHAIGDVLLFIDGDFAIPTSKLKLFLNPILYDQADVVLNNLDALFLKRQKTTSITVWRQILNAMLEREELKMNSLLDVPHALTKEVVQSIGYECFVNPIVAHLRLVQSKWRISRHCAIDVITPNKFRPFQHAAYGTNLSQSEKRMIGDHIEAVAERILSSDERGGYYDGNRKRDSVYHTLSFEEFYQGWGVTSDFYKGKQLSVVIPVQDEEKTIGNVIEELRKIEPFEIIVVVNGSSDKTKKIAKDKGATTIVYKEALGNDVGRSLGTYFAKGEIVLFIDGDFVIPASELYPFAKAIADGTDVALNDLNHYLDLRVPLHLVTAFKYALNLACDRKDLGVGSLIAVPNAFSRKCLKEIGYRSLLAPCVAQVKAILSGFEVACVSRVEVDKMNRIRPSEHFAKIGHPPAVLRIIGDHIEGLDQIIALTDNRGGFYDGNRKRDVLLEHHHHHH | not soluble
4 | MSLKIILSIFLAFFLSACGVKLSLPKEVDLTQEQMKDLNLTYDWYRSYDNAKLNEFLNFVLLNNSDINIARKTLLSALARADLIDYDLYPTLSGNLGFGADKDLNSGKQSKNFNNSLNLSYELDIYGKLRDSASASEFSAKASAYDLENLKISMINTALNDVFELAYFNDVDKLLRAYLSNLEQMKELYNYKYKLGKIEELDLLNIEQSLLRAKQNLLSNDQNRNLLIKNLQDLLARQEGFAYIEYFKTLSEGHHHHHH | soluble
5 | MFRSVVVSVRQPAVAGYFYPDDPLTLKQTVLNFLDQAPIHKPAPKAILVPHAGYVYSGAVAASAYASLRDKKDTINKIILLGPAHRLYFKGIAYDPVDKFATPLGEIDQDKELLTQIIDLPYVYSLPEAHQNEHCLEVQLPFCQMIFSKFKILPLVIGETNPQDVARLIARIWGGDDTLLIISSDLSHYLPYHIAQREDKKTCLSIDTLNGEEILHDAACGYFPLRGFLYFGRQNHVYSRLLDLRNSGDTAGDKERVVGYAAYHFYQKLKFSEHCADELKYIAKETIRLQTEENKALTINYNDYSQLLQMRVPTFITLKKNGMLRGCMGSLTTKDPLAENIIYNSIRAASADPRFPQIKPCELKELSLTISLIKPLSPLHFDSEEELKSQLQIGLDGLVLICGPYQATFLPSVWESVKTKDEFINHLKLKMGLSENFWSSEMRALRYATEIIKLEHHHHHH | not soluble
6 | MNRQIVRSALFVPATRPERIPKALASGADRVIVDLEDAVEEGLKVEARANLRRFLVDTPEARVLVRINAAEHPGHADDLALCRDHAGVIGLLLPKVESAAQVRHAAVASGKPVWPIVESARGLAALGEIAAAAGVERLSFGSLDLALDLDLNSGSNAAEQILGHARYALLLQTRLAGLAPPLDGVYPAIQNRAGLVEAVRFARDMGFGGLLCIHPSQVEPIHQTLMPSPAELEWARRVAEAGASGAGVFVVDGEMVDAPVLGRARRLLERAGEGG | not soluble
7 | MNLTDYVKEVSRQDFGIEFQHTASWNSRLQTTGGRFFPEDGHLDFNPKFCKKGDAGTFRKIVRHELCHYHLYYAGKGYRHGDKDFKDLLLQVNGVRYAPSIQSNTFYHYYQCESCGQVYQRKRRMNTKKYACGNCHGKLRHQNQSLEHHHHHH | not soluble
8 | MSLAAENILQRQFKAEAPCEKWVTDITEFRAGGQKLYLSPILDLFYGEIVAWETACRPTEELVKRMLNKGLESLAEGEKPLLHSDQGWHYRIKSYQSALADRGLVQSMSRKGNSLDNAVMENFFGHLKEEMYYRRDYRNVEELENAVNEYITYWNQKRIKLSLGGLSPVEYRTEYQKAGEGHHHHHH | not soluble
9 | GAKPNQKVIAEILKYPSPGKNPEAKVVKVLGDLDDPSIDLPSVIVKHDLPEPGEFPEEVIREANAIPARVRKKDLVGRKDLRDKVIVTIDGEDAKDFDDAISVEKLPNGNYLLGVHIADVSHYVKEGSALDQEAFKRGTSVYLIDTVIPMLPFRLSNGICSLVEGKDRLTMSVEMEIDRDGRVVRYDVYPSVIKSKKRMIYERVNEFLEDPSSMKEYEPFKDLIYNAVELAEILREARRKRGAILDIESDEVKVILDENGQVVDIVPRKRGIAEKLIEEFMIRANETVAEIFDHAGLPFMYRVHEEPDPETIFQLKNYLEAMGIRAKFSHKIHPGMLQKLLEKVKDHPLRSSVERLLVRSMKRAMY | soluble
10 | MGSDKIHHHHHHMIRSLWIAKTGLNAQQTNMDVISNNLANVSTNGFKRQRAVFEDLMYQTIRQPGAQSSEQTMLPSGLQLGTGVRPVSTERIHTQGTFSETGNSKDVAIKGQGFFQVQLPDGTTAYTRDGAFQLDGNGQLVTSSGYQVQPAITVPANATELNIGRDGIVSVKVQGQAATNQIGQLTLTTFINDSGLESMGENLYLETASSGAPNETNPGLNGAGLLYQKYVETSNVNVAEELVSMIQTQRAYEINSKAISSSDQMLQKLTQL | not soluble
11 | MLQINRHILDNGLRLVHAQDTSTQMVALNILYNVGARDENPEHTGFAHLFEHLMFGGSVNIPDYDAPLQLAGGENNAWTNNDITNYYLTVPRQNVETGFWLESDRMLSLDFSERSLEVQRGVVMEEFKQRCLNQPYGDVGHLLRPLAYRVHPYQWPTIGKELSHIANATLEEVKDFFFRFYAPNNAVLAVTGNISFEEALHLTEKWFGPIPRREVPLRQLPPEPVQTEERRLVVERNVPLDSLFMAYHMCDRADSDYYAFDILSDILSNGRSSRLNQHLVQEKQLFSSIDAYISGTLDAGLFHISGKPAAGVSLEEAEAAVREELNELQSALIQEQELEKVKNKFESTQIFGNINYLNVATNLAWFELNGRAEDMEKEVERYRAVTADRLNAVAQTAFREENGVVLYYKSSRGEKDETYI | not soluble
12 | MRGDDMHIYELVSRDRTHPVRIYLLHSEYWTEDEFYNLLLEAFQRSSASDWHLQILEVSKYLVTAHGFVEAGGLQEIGFPGELSKTEVRRRINAFLGKDRSD | soluble
13 | MTIQQSVTHQLLIPITFEGKEHTTITLQRPKTKDLQAIDKKEGVEQTIAMIARLSGWPHEAISELDINDLSSIGEILESFIKRRDTSTGKPPQN | soluble
14 | MHHHHHHSSGRENLYFQGFRGTDPGDVVIEELFNRIPQANVRTTSEYMQSAADSLVSTSLWNTGQPFRVESELGERPRTLVRGTVLGQEDPYAYLEATDQETGESFEVHVPYFTERPPSNAIKQMKEEVLRLRLLRGIKNQKQAKVHLRFIFPFDLVKDPQKKKMIRVRLDERDMWVLSRFFLYPRMQSNLQTFGEVLLSHSSTHKSLVHHARLQLTLQVIRLLASLHHYGLVHTYLRPVDIVLDQRGGVFLTGFEHLVRDGASAVSPIGRGFAPPETTAERMLPFGQHHPTLMTFAFDTWTLGLAIYWIWCADLPNTDDAALGGSEWIFRSCKNIPQPVRALLEGFLRYPKEDRLLPLQAMETPEYEQLRTELSAALPLYQTDGEPTREGGAPPSGTSQPDEAGAAEAVTAI | soluble
15 | MGQFPRTVVHAAGTTEITTKPERVVVLDTGELDSVLSLGITPVGMTTTKGANPVPSYLADKVKDVERVGTINELNIEAIAALKPDLIIGSQLRADKLYPQLSDIAPTVFSIRPGSPWKENFLLVGEALGMEKEAEEKLNEYADRVAELKNNVPQNTEVSLVRFMPNKLRLYGNKSLIGVVLADAGLARPEKQNVDDLAVEISPENIDQAAGSVIFYTSYGKPDATGETAVVEGPAWKNLEAVAAGKAHRVNDDVWFLGLGPTGAMEIVSDLHDYLLEHHHHHH | soluble
16 | MSEQFVTISQHVRNPQEAAALFGVHDIHLKRIEEELGVSIVTRGETVNVSGTPQQVQLVNELLRHLLIVIRKGAAVSERDVLYAIQLAKKGALDGLVQLYDEEITKNAKGKPIRVKTLGQRYYVAAIEQYDLTFGIGPAGTGKTYLAVVMAVKALKNGSVKRIILTRPAVEAGESLGFLPGDLKEKVDPYLRPLYDALNDVLGAEYTQRLIERGTIEIAPLAYMRGRTLEDAFVILDEAQNTTPAQMKMFLTRLGFGSKMVITGDISQVDLPKGVESGLSVAKRILASIGGIAFVFLEQSDVVRHPLVAKIIDAYDEAGL | not soluble
17 | GSHMLHWGPKYWRSLHLYAIFFSDAPSWKEKYEAIQWILNFIESLPCTRCQHHAFSYLTKNPLTLNNSEDFQYWTFAFHNNVNNRLNKKIISWSEYKNIYEQSILK | soluble
18 | MSIVMSAGKGVTQVVERCEAAKESGFLDLSSCQLMYMADAVYMLIKGYEITKVSIQDNGFKKFPKKFVIKFPTATILNMANNEISEIPEEVATWTSLKGLNAAKNKISKFPEPFLQLKNLIYLDLNGNQLEEIDVDLFYSSLPALIKLNLSGNEGLGDETKKKLKALKPEKLDLIL | not soluble
19 | SGAISGDSLISLASTGKRVSIKDLLDEKDFEIWAINEQTMKLESAKVSRVFMTGKKLVYILKTRLGRTIKATANHRFLTIDGWKRLDELSLKEHIALPRKLESSSLQLSPEIEKLSQSDISWDSIVSITETGVEEVFDLTVPGPHNFVANDIIVHASI | soluble
20 | MGSSHHHHHHSSGLVPRGSHMLLREVTREERKNFYTNEWKVKDIPDFIVKTLELREFGFDHSGEGPSDRKNQYTDIRDLEDYIRATAPYAVYSSVALYEKPQEMEGWLGTELVFDIDAKDLPLRRCEHEPGTVCPICLNDAKEIVRDTVIILREELGFNDIHIIYSGRGYHIRVLDEWALKLDSKSRERILSFVSASEIEDVEEFRKLLLNKRGWFVLNHGYPRAFRLRFGYFILRIKLPHLINAGIRKSIAKSILKSKEEIYEEFVRKAILAAFPQGVGIESLAKLFALSTRFSKSYFDGRVTVDLKRILRLPSTLHSKVGLIAKYVGTNERDVMRFNPFKHAVPKFRKEEVKVEYKKFLESLGT | soluble
21 | NTIQQLMMILNSASDQPSENLISYFNNCTVNPKESILKRVKDIGYIFKEKFAKAVGAGCVAIGSQRYKLGVRLYYRVMESMLKSEEERLSIQNFSKLLNDNIFHMSLLACALEVVMATYSRSTSQNLDSGTDLSFPWILNVLNLKAFDFYKVIESFIKAEGNLTREMIKHLERCEHRIMESLAWLSDSPLFDLIKQSKTREGKSTSLSLFYKKVYRLAYLRLNTLCERLLSEHPELEHIIWTLFQHTLQNEYELMRDRHLDQIMMCSMYGICKVKNIDLKFKIIVTAYKDLPHAVQETFKRVLIKEEEYDSIIVFYNSVFMQRLKTNILQYASTRPPTLSPIPHI | soluble
22 | MKTTTQELKQYITRLFQLSNNETWECEALEEAAENILPERFINNSLLAHLTLNTYTYYNDELHELSIYPFLMYANDQLISIGYLDHFDMDFLYLTDTKNTLIDERHLLKQGGNHHELEHHHHHH | soluble
